Results published in IntAct's records for PubMed 24413684.

B1: Programmed cell death protein 4 (Homo sapiens), Q53EL6 (parent)
chain: MDVENEQILNVNPADPDNLSDSLFSGDEENAGTEEIKNEINGNWISASSINEARINAKAKRRLRKNSSRDSGRGDSVSDSGSDALRSGLTVPTSPKGRLLDRRSRSGKGRGLPKKGGAGGKGVWGTPGQVYDVEEVDVKDPNYDDDQENCVYETVVLPLDERAFEKTLTPIIQEYFEHGDTNEVAEMLRDLNLGEMKSGVPVLAVSLALEGKASHREMTSKLLSDLCGTVMSTTDVEKSFDKLLKDLPELALDTPRAPQLVGQFIARAVGDGILCNTYIDSYKGTVDCVQARAALDKATVLLSMSKGGKRKDSVWGSGGGQQSVNHLVKEIDMLLKEYLLSGDISEAEHCLKELEVPHFHHELVYEAIIMVLESTGESTFKMILDLLKSLWKSSTITVDQMKRGYERIYNEIPDINLDVPHSYSVLERFVEECFQAGIISKQLRDLCPSRGRKRFVSEGDGGRLKPESY

Variants of: B1
Settings: with if4a1_human EIF4A1, P60842
Sequence of if4a1_human EIF4A1, P60842 (P60842 whole entry): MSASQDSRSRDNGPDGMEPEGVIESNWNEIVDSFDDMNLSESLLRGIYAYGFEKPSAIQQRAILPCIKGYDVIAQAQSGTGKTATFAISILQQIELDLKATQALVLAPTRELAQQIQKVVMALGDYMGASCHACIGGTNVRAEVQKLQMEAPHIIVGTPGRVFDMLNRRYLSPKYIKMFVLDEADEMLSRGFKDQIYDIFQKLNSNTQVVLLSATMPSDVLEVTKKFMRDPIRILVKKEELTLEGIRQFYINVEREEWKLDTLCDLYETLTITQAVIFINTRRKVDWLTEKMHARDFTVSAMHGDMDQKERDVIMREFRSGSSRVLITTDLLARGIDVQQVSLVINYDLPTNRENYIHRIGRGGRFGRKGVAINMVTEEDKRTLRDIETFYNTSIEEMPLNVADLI
In the case of D253A;D418A, the “effect of a mutation on the interaction” value is reported as “decreasing interaction”.
For D418A, the “effect of a mutation on the interaction” value was “decreasing interaction”.
